# From patent US20180245061A1, “Modified Heterocyclase” (THE UNIVERSITY COURT OF THE UNIVERSITY OF ABERDEEN, priority 2014, published 2018)
# Residue numbers refer to the chain shown, from its start.
# T1: PatE' (precursor peptide PatE variant, 64 amino acids, full leader, single core peptide ITACITFC, C-terminal …)
# T1 peptide: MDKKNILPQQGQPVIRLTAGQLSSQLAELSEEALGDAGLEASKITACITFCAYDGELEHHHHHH
# T2: PatE' E31R
# T2 construct: Point mutant of PatE'
# T2 peptide: T1 peptide with E31R
# B1: MicD-Q21-5G: fused-MicD: leader from Q21, 5 GA repeats linker, KL, MicD (SEQ ID NO: 40) (protein)
# chain: MSHHHHHHDYDENLYFQGSQLSSQLAELSEEALGDAGAGAGAGAGAKLMQSTPLLQIQPHFHVEVIEPKQVYLLGEQANYALTGQLYCQILPLLDGQHSREQIVEKLDGEVPSEYIDYVLDRLAEKGYLTEAAPELSSEVAAFWSELGIAPPVAAEALRQSVTLTPVGNISEVTVAALTTALRDIGISVQTPTEAGSPTALNVVLTDDYLQPELAKINKQALESQQTWLLVKPVGSVLWLGPVFVPGKTGCWDCLAHRLRGNREVEASVLQQKQAQQQRNGQSGSVIGCLPTARATLPSTLQTGLQFAATEIAKWIVKHHVKATAPGTVFFPTLDGKIITFNHTVIDLKSHVLVRRSQCPSCGDRQILHRQGFEPVKLVSRRKHFTHDGGHRAFTPEQTVQKYQHLVSPITGVVTELVRLTDPANPLVHTYKAGHAFGSATTLRGLRNTLKYKSSGKGKTDIQSRASGLCEAIERYSGIFQGDEPRKRATLAELGDLALHPESLLYFSNTQYANREELNAQGSAAAYRWIPNRFDVSQAIDWTPVWSLTEQKHKYVPTAFCYYGYPLPEEQRFCKADSNGNAAGNTLEEAILQGFLELVERDSIAMWWYNRIRRPAVDLSTFDEPYFVDLQQFYQQQNRELWVLDVTADLGIPAFAGFSRRTVGTSERISIGFGAHLDPTIAILRALTEVSQVGLELDKIPDDKLDGESKDWMLNVTVENHPWLAPDPSVPMKTASDYPKRWSDDIHTDVMNCVKTAQTAGLEVMVLDQTRPDIGLNVVKVIIPGMRTFWTRFGQGRLYDIPVKLGWLDAPLAEEELNQTNIPF
# modifications: Modified heterocyclase MicroD_Q21_5GA
# B2: LynD R74E (enzyme)
# chain: MQSTPLLQIQPHFHVEVIEPKQVYLLGEQANHALTGQLYCQILPLLNGQYTLEQIVEKLDGEVPPEYIDYVLEELAEKGYLTEAAPELSSEVAAFWSELGIAPPVAAEALRQPVTLTPVGNISEVTVAALTTALRDIGISVQTPTEAGSPTALNVVLTDDYLQPELAKINKQALESQQTWLLVKPVGSVLWLGPVFVPGKTGCWDCLAHRLRGNREVEASVLRQKQAQQQRNGQSGSVIGCLPTARATLPSTLQTGLQFAATEIAKWIVKYHVNATAPGTVFFPTLDGKIITLNHSILDLKSHILIKRSQCPTCGDPKILQHRGFEPLKLESRPKQFTSDGGHRGTTPEQTVQKYQHLISPVTGVVTELVRITDPANPLVHTYRAGHSFGSATSLRGLRNTLKHKSSGKGKTDSQSKASGLCEAVERYSGIFQGDEPRKRATLAELGDLAIHPEQCLCFSDGQYANRETLNEQATVAHDWIPQRFDASQAIEWTPVWSLTEQTHKYLPTALCYYHYPLPPEHRFARGDSNGNAAGNTLEEAILQGFMELVERDGVALWWYNRLRRPAVDLGSFNEPYFVQLQQFYRENDRDLWVLDLTADLGIPAFAGVSNRKTGSSERLILGFGAHLDPTIAILRAVTEVNQIGLELDKVPDENLKSDATDWLITEKLADHPYLLPDTTQPLKTAQDYPKRWSDDIYTDVMTCVNIAQQAGLETLVIDQTRPDIGLNVVKVTVPGMRHFWSRFGEGRLYDVPVKLGWLDEPLTEAQMNPTPMPF
# notes: Point mutant of LynD
# B3: LynD: full-length cyanobactin heterocyclase LynD (Lyngbya sp. PCC 8106), SEQ ID NO: 1 (protein)
# chain: B2 chain with E74R
# modifications: Lyngbya sp. PCC 8106
# How the values were obtained:
# [1] = target: Lyngbya sp. LynD heterocyclase (SEQ ID NO: 1) variant R427E; experiment: ITC nucleotide binding (ATP/AMP) to LynD R427E; parameters: species or system Lyngbya sp. PCC 8106; details: 25° C., pH 7.4, 5 mM MgCl2
# Procedure: (§1) Codon optimized full-length LynD (Lyngbya sp. PCC 8106) with an N-terminal TEV protease-cleavable His6-tag was purchased from DNA2.0 in the pJexpress411 plasmid. The protein was expressed in Escherichia coli BL21 (DE3) grown on auto-induction medium {Studier, 2005, Protein expression and purification, 41, 207-234} for 48 h at 20° C. Cells were harvested by centrifugation at 4,000×g, 4° C. for 15 min and re-suspended in lysis buffer (500 mM NaCl, 20 mM Tris pH 8.0, 20 mM imidazole and 3 mM β-mercaptoethanol (BME)) with the addition of complete EDTA-free protease inhibitor tablets (Roche) and 0.4 mg DNase g^−1 wet cells (Sigma). Cells were lysed by passage through a cell disruptor at 30 kPSI (Constant Systems Ltd) and the lysate was cleared by centrifugation at 40,000×g, 4° C. for 20 min. The cleared lysate was applied to a Nickel Sepharose 6 Fast Flow (GE Healthcare) column pre-washed with lysis buffer and protein eluted with 250 mM imidazole. The protein was then passed over a desalting column (Desalt 16/10, GE Healthcare) in 100 mM NaCl, 20 mM Tris pH 8.0, 20 mM imidazole, 3 mM BME. Tobacco etch virus (TEV) protease was added to the protein at a mass-to-mass ratio of 1:10 and the protein digested for 2 h at 20° C. to remove the Hiss-tag. However, removal of the Hiss-tag was not essential for activity and so less vigorous methods for purification may also be used. […]
# [2] = target: Lyngbya sp. LynD heterocyclase, wild type, SEQ ID NO: 1; experiment: ITC nucleotide binding (ATP/AMP) to LynD; parameters: species or system Lyngbya sp. PCC 8106; details: 25° C., pH 7.4, 5 mM MgCl2, one-site model, stoichiometry set to 1, read-out: Nucleotide KD (AMP)
# Procedure: as §1
# [3] = target: Lyngbya sp. LynD heterocyclase (SEQ ID NO: 1) variant R636A; experiment: ITC nucleotide binding (AMP) to LynD R636A; parameters: species or system Lyngbya sp. PCC 8106; details: 25° C., pH 7.4, 5 mM MgCl2
# Procedure: as §1
# [4] = target: Lyngbya sp. LynD heterocyclase (SEQ ID NO: 1) variant K409E; experiment: ITC nucleotide binding (ATP/AMP) to LynD K409E; parameters: species or system Lyngbya sp. PCC 8106; details: 25° C., pH 7.4, 5 mM MgCl2
# Procedure: as §1
# [5] = target: Lyngbya sp. LynD heterocyclase (SEQ ID NO: 1) variant E423R; experiment: ITC nucleotide binding (ATP/AMP) to LynD E423R; parameters: species or system Lyngbya sp. PCC 8106; details: 25° C., pH 7.4, 5 mM MgCl2
# Procedure: as §1
# [6] = target: Lyngbya sp. LynD heterocyclase (SEQ ID NO: 1) variant K409A; experiment: ITC nucleotide binding (ATP/AMP) to LynD K409A; parameters: species or system Lyngbya sp. PCC 8106; details: 25° C., pH 7.4, 5 mM MgCl2
# Procedure: as §1
# [7] = target: Lyngbya sp. LynD heterocyclase (SEQ ID NO: 1) variant R636E; experiment: ITC nucleotide binding (ATP/AMP) to LynD R636E; parameters: species or system Lyngbya sp. PCC 8106; details: 25° C., pH 7.4, 5 mM MgCl2
# Procedure: as §1
# full-length PatE = experiment: Heterocyclization of full length PatE substrate (core sequence ITVCISVC), MALDI-TOF-MS; assay type: biochemical; details: MALDI-TOF-MS (FIG. 9)
# Excerpt: Reaction Zoomed view with reaction products identified. The mass of the starting material is 6983.8 Da.
# PatE′ [8] = experiment: ITC substrate peptide binding: PatE′; details: 10 μM enzyme, 150 μM peptide, 20° C.
# Procedure: (§2) ITC experiments were performed using a VP-ITC instrument (MicroCal) in heterocyclization reaction buffer (150 mM NaCl, 10 mM HEPES pH7.4, 1 mM TCEP) supplemented with 5 mM MgCl2. For substrate binding experiments a cell solution of 10 μM LynD (and mutants) and a syringe solution of 150 μM PatE′ (and mutants) was prepared by diluting protein and peptide with the buffer used for dialysis. For nucleotide binding experiments, the cell concentration was increased to 20 μM, and the ATP/AMP concentration in the syringe solution was 300 μM. Substrate, and ATP experiments were performed at 20° C., and AMP experiments at 25° C. Cell and syringe solutions were degassed for 15 min at 18 and 23° C. Titration method was as follows: one injection of 2 μl followed by injections of 5 μl at 0.5 μl/min, with a delay of 4 min between every injection. The stirring speed was 307 rpm throughout. Raw data was processed using MicroCal Origin software, and the baseline was adjusted and the integrations limits were selected manually. Data was non-linearly fitted to the one-site model (Origin) setting the stoichiometry to 1.
# PatE′ E31R = experiment: ITC substrate peptide binding: PatE′ E31R; details: 10 μM enzyme, 150 μM peptide, 20° C.
# Procedure: as §2
# [9] = target: T1, PatE' (precursor peptide PatE variant, …); experiment: ITC, 20 C
# PatE' E31R = target: T2, PatE' E31R; experiment: ITC, 20 C
# PatE′ [10] = experiment: Heterocyclization reaction with PatE′, MS analysis; assay type: biochemical; details: 5 mM ATP, 5 mM MgCl2, 16 h at 37° C.; for No. of heterocycles, peptide PatE′: 2 μM enzyme, TABLE 2
# Procedure: (§3) For all heterocyclization reactions, […] PatE′ (and variants,) was incubated with 2 μM enzyme in 150 mM NaCl, 10 mM HEPES pH 7.4, 1 mM TCEP, 5 mM ATP and 5 mM MgCl2 for 16 h at 37° C. Samples were analyzed by ESI or MALDI MS (LCT, Micromass or 4800 MALDI TOF/TOF Analyzer, ABSciex). For cis trans activation studies, 100 μM ITACITFCAYDG synthetic test peptide (Peptide Protein Research Ltd) was reacted with 5 μM heterocyclase enzyme in the presence and absence of 5.5 μM LAELSEEAL synthetic peptide, or 5.5 μM full-length PatE′4 leader peptide. The reaction was carried out in 150 mM NaCl, 10 mM HEPES pH 7.4, 1 mM TCEP, 5 mM ATP and 5 mM MgCl2 for 16 h at 37° C. and analyzed as above. Synthetic peptides were purchased from Peptide Protein Research Ltd.
# PatE′ L26R [11] = experiment: Heterocyclization reaction with PatE′ L26R; assay type: biochemical; details: 2 μM enzyme, 5 mM ATP, 5 mM MgCl2, 16 h at 37° C.
# Procedure: as §3
# PatE′ L26R [12] = experiment: ITC substrate peptide binding: PatE′ L26R; details: 10 μM enzyme, 150 μM peptide, 20° C.
# Procedure: as §2
# PatE′ L29R = experiment: ITC substrate peptide binding: PatE′ L29R; details: 10 μM enzyme, 150 μM peptide, 20° C.
# Procedure: as §2
# PatE′ E32R = experiment: Heterocyclization reaction with PatE′ E32R; assay type: biochemical; details: 2 μM enzyme, 5 mM ATP, 5 mM MgCl2, 16 h at 37° C.
# Procedure: as §3
# Sequence of PatE′ L26R (as listed by the source, stated change not applied): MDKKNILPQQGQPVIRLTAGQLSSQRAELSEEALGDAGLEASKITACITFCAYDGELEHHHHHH
# Sequence of PatE′ E31R (as listed by the source, stated change not applied): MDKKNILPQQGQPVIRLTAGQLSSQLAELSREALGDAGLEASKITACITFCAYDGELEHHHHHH
# Sequence of PatE′ L29R (as listed by the source, stated change not applied): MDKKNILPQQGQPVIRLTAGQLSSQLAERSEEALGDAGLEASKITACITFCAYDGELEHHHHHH
# Sequence of PatE′ L29R (as listed by the source partner): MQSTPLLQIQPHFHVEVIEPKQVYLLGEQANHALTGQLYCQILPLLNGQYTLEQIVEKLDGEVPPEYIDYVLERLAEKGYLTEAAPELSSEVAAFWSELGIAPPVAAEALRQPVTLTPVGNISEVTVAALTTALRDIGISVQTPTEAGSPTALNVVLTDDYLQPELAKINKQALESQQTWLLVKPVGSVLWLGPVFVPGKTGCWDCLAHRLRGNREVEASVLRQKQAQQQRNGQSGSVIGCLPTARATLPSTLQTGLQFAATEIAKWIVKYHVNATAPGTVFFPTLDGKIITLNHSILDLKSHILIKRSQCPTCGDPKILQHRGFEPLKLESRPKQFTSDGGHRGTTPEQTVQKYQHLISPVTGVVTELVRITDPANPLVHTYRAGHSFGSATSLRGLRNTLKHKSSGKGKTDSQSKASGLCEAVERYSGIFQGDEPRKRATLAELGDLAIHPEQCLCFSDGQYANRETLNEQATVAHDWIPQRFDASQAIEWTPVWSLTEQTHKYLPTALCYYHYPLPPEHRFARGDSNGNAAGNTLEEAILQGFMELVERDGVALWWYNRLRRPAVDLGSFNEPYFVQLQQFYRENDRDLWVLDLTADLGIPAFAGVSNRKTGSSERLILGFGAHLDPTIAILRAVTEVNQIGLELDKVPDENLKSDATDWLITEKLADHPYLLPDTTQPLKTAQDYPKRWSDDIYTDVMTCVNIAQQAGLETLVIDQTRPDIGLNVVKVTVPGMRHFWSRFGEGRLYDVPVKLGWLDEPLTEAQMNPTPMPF
# Sequence of PatE′ E32R (as listed by the source, stated change not applied): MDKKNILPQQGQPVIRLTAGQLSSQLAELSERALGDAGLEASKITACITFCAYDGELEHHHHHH
molecule,measurement,setting,value
Nc1ncnc2c1ncn2[C@@H]1O[C@H](COP(=O)(O)O)[C@@H](O)[C@H]1O [AMP],Kd,[1],23 µM
same,Kd,[2],14.4 µM
same,Nucleotide KD (AMP),[3],no binding
same,Nucleotide KD (AMP),[4],no binding
same,Kd,[5],5.65 µM
same,Nucleotide KD (AMP),[6],no binding
same,Nucleotide KD (AMP),[7],no binding
B1,heterocyclization of full-length PatE,full-length PatE,inefficiently and produce a mixture of different heterocyclic species
B2,"KD (μM), peptide PatE′",PatE′ [8],no binding
same,"KD (μM), peptide PatE′ E31R",PatE′ E31R,no binding
same,binding result,[9],no binding
same,binding result,PatE' E31R,no binding
same,"No. of heterocycles, peptide PatE′",PatE′ [10],2
B3,"KD (μM), peptide PatE′ E31R",PatE′ E31R,no binding
same,"No. of heterocycles, peptide PatE′ L26R",PatE′ L26R [11],2
same,"KD (μM), peptide PatE′ L26R",PatE′ L26R [12],no binding
same,"KD (μM), peptide PatE′ L29R",PatE′ L29R,no binding
same,"No. of heterocycles, peptide PatE′",PatE′ [10],2
same,No. of heterocycles (PatE′),"PatE′ [10]; PatE′ with 2 μM enzyme, TABLE 1",2
same,"No. of heterocycles, peptide PatE′ E32R",PatE′ E32R,2
